T1: APG30129-L32-nAPG07433.1 (synthetic)
T1 chain: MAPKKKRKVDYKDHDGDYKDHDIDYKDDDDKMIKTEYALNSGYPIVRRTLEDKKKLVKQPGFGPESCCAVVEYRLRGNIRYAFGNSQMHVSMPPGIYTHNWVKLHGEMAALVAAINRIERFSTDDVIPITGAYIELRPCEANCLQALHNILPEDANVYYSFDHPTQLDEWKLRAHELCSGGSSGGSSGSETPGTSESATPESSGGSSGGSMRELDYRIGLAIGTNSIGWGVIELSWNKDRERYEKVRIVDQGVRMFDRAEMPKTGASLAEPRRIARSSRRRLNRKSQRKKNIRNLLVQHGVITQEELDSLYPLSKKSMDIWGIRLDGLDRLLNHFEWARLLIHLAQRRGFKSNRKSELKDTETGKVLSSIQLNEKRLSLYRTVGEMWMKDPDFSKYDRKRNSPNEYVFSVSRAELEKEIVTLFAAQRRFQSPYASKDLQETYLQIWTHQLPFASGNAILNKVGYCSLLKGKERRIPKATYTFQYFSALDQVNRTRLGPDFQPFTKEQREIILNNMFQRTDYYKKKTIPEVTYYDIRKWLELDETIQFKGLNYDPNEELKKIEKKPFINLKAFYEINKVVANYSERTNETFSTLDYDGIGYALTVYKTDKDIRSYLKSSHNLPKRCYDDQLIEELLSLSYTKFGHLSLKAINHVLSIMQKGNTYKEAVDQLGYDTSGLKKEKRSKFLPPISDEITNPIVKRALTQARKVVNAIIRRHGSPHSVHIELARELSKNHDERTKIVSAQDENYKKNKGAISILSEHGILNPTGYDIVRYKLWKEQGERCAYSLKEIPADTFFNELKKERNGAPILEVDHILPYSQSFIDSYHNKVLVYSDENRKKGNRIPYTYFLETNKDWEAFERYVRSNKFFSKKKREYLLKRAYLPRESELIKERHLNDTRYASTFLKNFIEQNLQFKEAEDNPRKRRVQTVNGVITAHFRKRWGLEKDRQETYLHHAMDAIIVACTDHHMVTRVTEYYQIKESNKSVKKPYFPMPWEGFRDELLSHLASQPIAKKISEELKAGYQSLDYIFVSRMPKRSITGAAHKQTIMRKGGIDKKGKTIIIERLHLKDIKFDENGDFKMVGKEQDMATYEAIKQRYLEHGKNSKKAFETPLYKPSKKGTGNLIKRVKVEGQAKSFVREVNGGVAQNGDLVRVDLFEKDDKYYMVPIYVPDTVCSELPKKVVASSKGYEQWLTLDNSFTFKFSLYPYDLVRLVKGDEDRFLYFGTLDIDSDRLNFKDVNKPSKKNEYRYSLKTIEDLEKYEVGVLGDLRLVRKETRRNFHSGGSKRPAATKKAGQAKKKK

T2: APG30125-L32-nAPG07433.1 (synthetic)
T2 chain: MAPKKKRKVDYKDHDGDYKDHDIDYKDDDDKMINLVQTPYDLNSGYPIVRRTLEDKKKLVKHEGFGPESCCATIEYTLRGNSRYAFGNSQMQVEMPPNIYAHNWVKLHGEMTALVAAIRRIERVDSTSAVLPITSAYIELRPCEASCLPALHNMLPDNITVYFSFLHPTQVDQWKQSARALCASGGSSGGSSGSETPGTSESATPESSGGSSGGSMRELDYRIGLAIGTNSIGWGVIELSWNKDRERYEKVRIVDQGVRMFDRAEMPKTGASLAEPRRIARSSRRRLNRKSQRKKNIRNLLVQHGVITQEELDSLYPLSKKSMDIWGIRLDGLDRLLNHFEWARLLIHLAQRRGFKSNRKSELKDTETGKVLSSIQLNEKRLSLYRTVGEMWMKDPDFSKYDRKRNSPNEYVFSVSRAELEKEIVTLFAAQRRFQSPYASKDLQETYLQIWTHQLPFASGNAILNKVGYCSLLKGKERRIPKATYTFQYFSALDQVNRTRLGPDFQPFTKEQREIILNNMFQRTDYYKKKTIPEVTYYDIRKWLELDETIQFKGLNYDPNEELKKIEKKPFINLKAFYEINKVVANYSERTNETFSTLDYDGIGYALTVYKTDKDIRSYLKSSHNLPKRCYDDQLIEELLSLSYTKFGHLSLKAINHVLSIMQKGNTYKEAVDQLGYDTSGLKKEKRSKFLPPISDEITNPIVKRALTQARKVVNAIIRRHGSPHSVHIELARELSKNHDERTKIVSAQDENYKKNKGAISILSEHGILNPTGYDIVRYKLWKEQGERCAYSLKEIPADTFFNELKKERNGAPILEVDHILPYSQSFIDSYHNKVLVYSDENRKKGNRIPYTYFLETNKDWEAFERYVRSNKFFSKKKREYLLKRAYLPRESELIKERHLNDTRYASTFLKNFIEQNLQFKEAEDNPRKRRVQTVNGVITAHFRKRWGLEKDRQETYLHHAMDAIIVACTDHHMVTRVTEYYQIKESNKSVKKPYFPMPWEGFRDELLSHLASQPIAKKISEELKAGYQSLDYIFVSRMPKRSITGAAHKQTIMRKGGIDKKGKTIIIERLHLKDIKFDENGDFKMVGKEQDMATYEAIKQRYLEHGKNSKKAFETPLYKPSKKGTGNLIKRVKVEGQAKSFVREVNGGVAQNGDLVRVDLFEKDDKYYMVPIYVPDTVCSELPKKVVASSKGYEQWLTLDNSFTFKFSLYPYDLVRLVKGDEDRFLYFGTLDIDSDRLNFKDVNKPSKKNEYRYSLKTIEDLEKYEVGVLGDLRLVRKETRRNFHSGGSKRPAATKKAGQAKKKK


What was measured:
[1] = biological target: T1, APG30129-L32-nAPG07433.1; test: cell_activity; HEK293FT; PAM SEQ 152; conditions: tags: SV40 NLS, 3xFLAG N-term; nucleoplasmin NLS C-term
How it was run: (§1)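 Editing read out by next-generation sequencing (MiSeq 2×250) of PCR amplicons spanning the target site, analysed for INDELs or % cytosine conversion per position (position 1 nearest PAM).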

[2] = biological target: T2, APG30125-L32-nAPG07433.1; test: cell_activity; HEK293FT; PAM SEQ 152; conditions: tags: SV40 NLS, 3xFLAG N-term; nucleoplasmin NLS C-term
How it was run: as §1

Row | Binder | activity [1] | activity [2]
1 | SGN000930 sgRNA ; SGN000930 target (ssRNA ; dsDNA) RNA: GAACAACUCAAAUGGAAAUGAAUAUGUCAUAGUUCCAUGAAAGCCAAAAGUGGCUUUGAUGUUUCUAUGAUAAGGGUUUCGGCCCGUGGCGUCGGGGAUCGCCUGCCCAUUCCGAUGGGCUUCUCCCCAUUUAUU DNA 1: GAACAACTCAAATGGAAATGAATAT DNA 2: ATATTCATTTCCATTTGAGTTGTTC | 3.47 % mutated reads | –
2 | SGN000929 sgRNA ; SGN000929 target (ssRNA ; dsDNA) RNA: AUCUGGAGGGAACUUACAGCAUAUGGUCAUAGUUCCAUGAAAGCCAAAAGUGGCUUUGAUGUUUCUAUGAUAAGGGUUUCGGCCCGUGGCGUCGGGGAUCGCCUGCCCAUUCCGAUGGGCUUCUCCCCAUUUAUU DNA 1: ATCTGGAGGGAACTTACAGCATATG DNA 2: CATATGCTGTAAGTTCCCTCCAGAT | – | 7.39 % mutated reads
3 | SGN000169 sgRNA ; SGN000169 target (ssRNA ; dsDNA) RNA: CACAUCUCGAGCAAGACGUUGUCAUAGUUCCAUUAAAGCCAAAAGUGGCUUUGAUGUUUCUAUGAUAAGGGUUUCGACCCGUGGCGUCGGGGAUCGCCUGCCCAUUGAAAUGGGCUUCUCCCCAUUUAUU DNA 1: CACATCTCGAGCAAGACGTT DNA 2: AACGTCTTGCTCGAGATGTG | – | 6.89 % mutated reads
4 | SGN000194 sgRNA ; SGN000194 target (ssRNA ; dsDNA) RNA: GCCGCACAGCAUUCAGGUCGGUCAUAGUUCCAUUAAAGCCAAAAGUGGCUUUGAUGUUUCUAUGAUAAGGGUUUCGACCCGUGGCGUCGGGGAUCGCCUGCCCAUUGAAAUGGGCUUCUCCCCAUUUAUU DNA 1: GCCGCACAGCATTCAGGTCG DNA 2: CGACCTGAATGCTGTGCGGC | 5.92 % mutated reads | –

— patent publication US20240301385, “DNA MODIFYING ENZYMES AND ACTIVE FRAGMENTS AND VARIANTS THEREOF AND METHODS OF USE” (LIFEEDIT THERAPEUTICS, INC., published 2024)
